Assay results published in the supplement of paper PMC9170038.

System: MS2 coat protein
Experiment: apparent KD of MS2 coat protein; designed switch direction (-1 OFF switch, 1 ON switch): -1; higher = weaker reporter binding
How it was run: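 Three titration conditions were used: no input, 200 uM small-molecule ligand, and an oligonucleotide input. In each, SNAP-549-labelled MS2 coat protein was raised from 0.7 or 1.5 nM, doubling, to 3 µM over designed RNA switches transcribed on Illumina chips by stalled E. coli RNA polymerase. Curve fits of normalised cluster fluorescence gave values whose per-design median over clusters is the apparent KD.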

[1] = Eterna round: R95, input ligand: FMN 200 uM
[2] = Eterna round: R95, input ligand: microRNA oligo, concentration not stated
[3] = Eterna round: R95, input ligand: none

Sequence	apparent KD of MS2 coat protein [2] [nM]	apparent KD of MS2 coat protein (input ligand: FMN 200 uM) [nM]	apparent KD of MS2 coat protein (input ligand: none) [nM]	also measured
GUGGUGACAGGAUAUACAUGAGGAUCACCCAUGUGAGGAGGACGAGACAGGUGAAGGAGUAGAAGGGUCAGAGA [JR_Exclu3_Sub026] (puzzle: Exclusion 3)	61.9	–	–	apparent KD of MS2 coat protein [1]: 134 nM; apparent KD of MS2 coat protein [3]: 95.6 nM
GUGGUGGGUUUUCCGAGUAACAUGAGGAUCACCCAUGUAUUAGUUUGAUGUAUCAAGCGAAUGGCUCGUCUUAUAUA [JR_SV3TOV1_Sub045] (puzzle: Sensor v3, turn-off variant 1)	14.5	–	–	apparent KD of MS2 coat protein [1]: 128 nM; apparent KD of MS2 coat protein [3]: 107 nM
GUGUACAGAGGAUAUACACGAGUAGUUACGAAAGUAACUAUACAUGAGGAUCACCCAUGUAGAAGGCUGUACAC [Dot plot directed v2] (puzzle: Exclusion 2)	14.5	–	–	–
GUGUACUGAGGAUAUACAUGAGGAUCACCCAUGUGAAUAAGAUAGAAUAAGAUAAAGUGUAGAAGGCAGAGUGU [Excluse me!!! 2 - Jieux - Exclusion 3] (puzzle: Exclusion 3)	36.9	–	–	–
GUGUAGAUAGGAUAUGCAUGAGUCUAGCGAAGCUAGGCUCUACAUGAGGAUCACCCAUGUAGAAGGGUCUACAC [Dot plot directed A v13] (puzzle: Exclusion 2)	18.6	–	–	–
GUGUAGGCAGGAUAUACAUGAGGAUCACCCAUGUGAAUAAGAUAGAAUAAGAUAAAGUGUAGAAGGGUUAGUGU [Excluse me!!! 23 - Jieux - Exclusion 3] (puzzle: Exclusion 3)	31.7	–	–	–
GUUAAGGUAGGAUAUACGAUAAUAUAGGGUAGAAUAUUAACACAUGAGGAUCACCCAUGUAGAAGGACCAAUUG [Mat - Exclusion 2 - Mod of my Tesla design - D51] (puzzle: Exclusion 2)	21.1	–	–	apparent KD of MS2 coat protein [1]: 38.7 nM; apparent KD of MS2 coat protein [3]: 22.8 nM
GUUAAUUGUCACAUGGGUGACAUGAGGAUCACCCAUGUCACAAGCUUUUUGCUCGUCUUAUAAUUAACCCAUGUGAC [Stov1/12-A2] (Eterna round: R97, puzzle: Sensor, turn-off variant 1)	–	14.7	13.9	–
GUUCUUCCUGUGAGGAUAUCCAUGUGUCGGUGUGUGGAGAAGGUACAUGAGGAUCACCCAUGUCACCCGCGUUA (Eterna round: R97, puzzle: Brourd's mod of Exclusion 4)	–	24.3	19.2	–
GUUGCGUUUGUGAGGAUAUGCUGUUCCUUGGUUCGGCAGAAGGCACAUGAGGAUCACCCAUGUGGUGUCGUUCC [salish99_Bmod_ex4_053] (puzzle: Brourd's mod of Exclusion 4)	14.6	–	–	–
GUUGCUACUGAGGAUAUUAUACUACCCGACUGAUAAGAAGGCAGUACAUGAGGAUCACCCAUGUGGGUAGCCAC [Polaris13] (Eterna round: R97, puzzle: Exclusion 6)	–	25.5	21.7	–
GUUGCUACUGAGGAUAUUAUUUUACUCGACUGAUAAGAAGGCAGUACAUGAGGAUCACCCAUGUGGGUAGCCAG [Polaris16] (Eterna round: R97, puzzle: Exclusion 6)	–	64.7	19.3	–
GUUGUAUGAGGAUAUACAUGAGGAUCACCCAUGUGUGUUGUGAACGACGUACGUUUAUGUAGAAGGCGUGCGGC [-24.9, -21.8 kcal, 24% A] (Eterna round: R97, puzzle: Exclusion 3)	–	18.2	17.9	–
GUUGUUUAUGUAGGAUAUGCCUGGCGUGCCUUAGCAGAAGGACAUGAGGAUCACCCAUGUAUUGCGGUCUGCGUUCAGAUCGCU [salish99_ExNG1_r4_021] (Eterna round: R96, puzzle: Exclusion NG 1)	–	37	29.6	apparent KD of MS2 coat protein (input ligand: microRNA oligo, concentration not stated): 25.1 nM
GUUUACAAGCUAAGAUCCUACAUGAGGAUCACCCAUGUGGUCCGGUGACGUGAGUCACCGGACUUAGCUCGUCUUGC [salish99_S_TOV1_R5_089] (Eterna round: R97, puzzle: Sensor, turn-off variant 1)	–	36	37.2	–
GUUUGAUGAGGAUAUCGAGGUUAGUACAUGAGGAUCACCCAUGUUAUCCAGGUGUCGGUUCGAGAAGGUAUUGGAC [LRO-Ex5-15] (puzzle: Exclusion 5)	18.6	–	–	–
GUUUUCAGACGGAGAUCCUACAUGAGGAUCACCCAUGUCUCACUAGUUUUUUGCUCGUCUUAUCCUCCUCUGUUCUC [Elimod 29 - Jieux - Sensor, turn-off variant 1] (Eterna round: R97, puzzle: Sensor, turn-off variant 1)	–	413	926	–
GUUUUCAGACGGAGAUCCUACAUGAGGAUCACCCAUGUCUCUCUUGCUAAUUGCUCGUCUUAUUCUCCUCUGUUCUC [Elimod 37 - Jieux - Sensor, turn-off variant 1] (Eterna round: R97, puzzle: Sensor, turn-off variant 1)	–	80.8	100	–
UAAAACGUAGGAUAUGCGGAAAAUAACUUGAGGAUCACCCAAGUGUCCGAGAGGCUAAAUGCAGAAGGACGAGAUC [Edxedi] (Eterna round: R97, puzzle: Exclusion 5)	–	179	105	–
UAAAAGACAGGAUAUACUAACAACGACUUGAGGAUCACCCAAGUGGUAAGAGUCGAUCAUGUAGAAGGGUUAAAAC [Atsoce] (Eterna round: R97, puzzle: Exclusion 5)	–	74.3	28	–
UAAAAGCGAGGAUAUACAAACAGGUCCAAAACAUGUCUUGGACAUGAGGAUCACCCAUGUAGAAGGCGUAAAAG [Anleain] (Eterna round: R97, puzzle: Exclusion 2)	–	558	90.6	–
UAAAAGCUAGGAUAUACAUGAGGAUCACCCAUGUAAUCUCUCACUUACACGGAGGAUCGUAGAAGGAGCACAAA [Inlaveti] (puzzle: Exclusion 3)	20.3	–	–	–
UAAAAGGGAGGAUAUACUUGAGGAUCACCCAAGUGAUCCAGACCCUGAACGGUCUAUAGUAGAAGGCCCAAUAA [Teinma] (Eterna round: R97, puzzle: Exclusion 3)	–	152	58	–
UAAAAUAGUGUGAGGAUAUGCUGGUCCUUGGAUCAGCAGAAGGCACAUGAGGAUCACCCAUGUAGAUAAUAAUA [Mat - Exclusion 4 - JL Mod - D26] (puzzle: Brourd's mod of Exclusion 4)	49.6	–	–	apparent KD of MS2 coat protein [1]: 189 nM; apparent KD of MS2 coat protein [3]: 78 nM
UAAAGUAUAUAGGAUAUCUAGCUGGAAACAGCUAGAGAAGGAUGUACAUGAGGAUCACCCAUGUAAAACCUCAA [Ex6/17-A1] (Eterna round: R97, puzzle: Exclusion 6)	–	45.4	18.3	–
UAAAGUAUAUAGGAUAUCUAGCUGGAUACAGCUAGAGAAGGAUGUACAUGAGGAUCACCCAUGUAGAUCUCAAA [Ex6/15-A1] (Eterna round: R97, puzzle: Exclusion 6)	–	17.4	14.8	–
UAAAUUAUAGUAAGGAUAUCAGUCGCGAAAGUGGCUGAGAAGGUACAUGAGGAUCACCCAUGUGAAAUAAGAAU [Mod of Zala 17 - Jieux - Brourd's Mod of Exclusion 4] (Eterna round: R97, puzzle: Brourd's mod of Exclusion 4)	–	25.7	20	–
